Laboratory results reported in patent US20050272077.
Changes are numbered by the printed parent chain.

Columns and labels:
GST-MKK4, P45985 = molecular target: T1, GST-MKK4, P45985
T1 chain: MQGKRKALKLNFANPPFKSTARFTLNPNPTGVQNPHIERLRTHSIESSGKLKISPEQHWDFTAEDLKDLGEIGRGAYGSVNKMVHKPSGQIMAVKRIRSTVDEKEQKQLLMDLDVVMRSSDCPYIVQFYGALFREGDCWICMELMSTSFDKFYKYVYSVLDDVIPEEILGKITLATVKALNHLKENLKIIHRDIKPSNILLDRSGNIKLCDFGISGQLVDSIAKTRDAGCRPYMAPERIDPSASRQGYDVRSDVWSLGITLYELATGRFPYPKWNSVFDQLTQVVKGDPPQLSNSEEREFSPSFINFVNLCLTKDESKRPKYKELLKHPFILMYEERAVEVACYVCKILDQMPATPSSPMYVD

[1] = molecular target: T2, GST-ATF2 fusion protein (residues 1-505), P15336
T2 chain: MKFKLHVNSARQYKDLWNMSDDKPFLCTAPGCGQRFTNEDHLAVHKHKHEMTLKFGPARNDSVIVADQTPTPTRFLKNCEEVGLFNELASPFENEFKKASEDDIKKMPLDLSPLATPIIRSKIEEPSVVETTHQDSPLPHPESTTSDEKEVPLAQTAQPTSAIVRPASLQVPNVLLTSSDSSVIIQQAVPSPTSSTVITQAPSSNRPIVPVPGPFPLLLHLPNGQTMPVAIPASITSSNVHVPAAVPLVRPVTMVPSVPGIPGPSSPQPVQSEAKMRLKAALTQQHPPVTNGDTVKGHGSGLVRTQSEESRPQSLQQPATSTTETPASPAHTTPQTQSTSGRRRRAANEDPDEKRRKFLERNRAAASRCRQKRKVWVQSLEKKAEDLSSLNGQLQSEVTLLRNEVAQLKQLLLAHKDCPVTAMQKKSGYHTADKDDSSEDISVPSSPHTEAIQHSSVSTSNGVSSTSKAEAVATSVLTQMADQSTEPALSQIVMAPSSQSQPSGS

[2] = molecular target: T3, mutated ATF2 (Ala^69.71), P15336
T3 chain: T2 chain with T69A, T71A

[3] = molecular target: mutated GST-JNK1 (Ala^183, Phe^185), P45983
[4] = molecular target: GST-p38 MAP kinase (wild-type, TGY), Q16539
Chain of GST-p38 MAP kinase (wild-type, TGY), Q16539 (Q16539 whole entry, the tested form may be a part): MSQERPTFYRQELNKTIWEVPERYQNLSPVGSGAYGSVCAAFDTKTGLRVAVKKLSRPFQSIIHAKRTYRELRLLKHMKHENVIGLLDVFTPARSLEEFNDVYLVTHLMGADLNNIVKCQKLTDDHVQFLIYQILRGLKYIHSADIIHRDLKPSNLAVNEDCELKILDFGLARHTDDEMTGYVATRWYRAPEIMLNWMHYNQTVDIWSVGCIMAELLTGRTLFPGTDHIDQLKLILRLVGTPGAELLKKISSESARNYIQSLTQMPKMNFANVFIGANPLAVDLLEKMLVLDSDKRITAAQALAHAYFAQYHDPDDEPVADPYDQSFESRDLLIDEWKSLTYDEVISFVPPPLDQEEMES

[5] = molecular target: T4, GST-ATF2 fusion protein (residues 40-109), P15336
T4 chain: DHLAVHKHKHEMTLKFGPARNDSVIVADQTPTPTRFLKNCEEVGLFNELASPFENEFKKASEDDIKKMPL

[6] = molecular target: T5, GST-ATF2 fusion protein (residues 1-349), P15336
T5 chain: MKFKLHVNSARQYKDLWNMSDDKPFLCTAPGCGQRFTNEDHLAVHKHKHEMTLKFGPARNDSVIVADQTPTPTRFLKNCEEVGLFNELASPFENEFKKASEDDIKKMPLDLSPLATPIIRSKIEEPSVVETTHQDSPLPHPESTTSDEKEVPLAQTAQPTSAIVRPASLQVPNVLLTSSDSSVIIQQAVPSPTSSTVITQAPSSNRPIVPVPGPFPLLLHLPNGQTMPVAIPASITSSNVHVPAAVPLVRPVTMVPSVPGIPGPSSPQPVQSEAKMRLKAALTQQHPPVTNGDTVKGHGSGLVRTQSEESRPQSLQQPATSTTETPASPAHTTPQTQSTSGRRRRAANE

[7] = molecular target: T6, GST-ATF2 fusion protein (residues 20-109), P15336
T6 chain: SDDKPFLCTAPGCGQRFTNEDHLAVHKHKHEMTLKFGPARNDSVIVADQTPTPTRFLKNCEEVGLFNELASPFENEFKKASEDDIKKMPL

[8] = molecular target: T7, GST-ATF2 fusion protein (residues 60-109), P15336
T7 chain: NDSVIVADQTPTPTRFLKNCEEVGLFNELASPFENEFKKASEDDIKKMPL

[9] = molecular target: GST-ATF2 fusion protein (residues 1-109, activation domain) [GST: P08515]

Chain of GST-ERK2 [GST: P08515] (P08515 whole entry, looked up): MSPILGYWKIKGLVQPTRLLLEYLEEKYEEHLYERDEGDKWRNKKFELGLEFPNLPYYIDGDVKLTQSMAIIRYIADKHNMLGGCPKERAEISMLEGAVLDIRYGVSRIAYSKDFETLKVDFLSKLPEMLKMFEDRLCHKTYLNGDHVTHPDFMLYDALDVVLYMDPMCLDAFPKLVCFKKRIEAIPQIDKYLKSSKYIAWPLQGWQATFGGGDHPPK

B1: GST-JNK1 (protein)
chain: MSRSKRDNNFYSVEIGDSTFTVLKRYQNLKPIGSGAQGIVCAAYDAILERNVAIKKLSRPFQNQTHAKRAYRELVLMKCVNHKNIIGLLNVFTPQKSLEEFQDVYIVMELMDANLCQVIQMELDHERMSYLLYQMLCGIKHLHSAGIIHRDLKPSNIVVKSDCTLKILDFGLARTAGTSFMMTPYVVTRYYRAPEVILGMGYKENVDLWSVGCIMGEMVCHKILFPGRDYIDQWNKVIEQLGTPCPEFMKKLQPTVRTYVENRPKYAGYSFEKLFPDVLFPADSEHNKLKASQARDLLSKMLVIDASKRISVDEALQHPYINVWYDPSEAEAPPPKIPDKQLDEREHTIEEWKELIYKEVMDLEERTKNGVIRGQPSPLAQVQQ
phosphorylation of MKK4 (in vitro kinase assay, [γ-32P]ATP) (GST-MKK4, P45985): as was MKK4 incubated with JNK1 and p38

B2: JNK1 from UV-irradiated cells (protein)
chain: B1 chain
in-gel protein kinase assay with GST-ATF2 (residues 1-505) polymerized in the gel [1]: 46 kD and 55 kD protein kinases that phosphorylate ATF2 in extracts prepared from UV-irradiated cells. The 46 kD and 55 kD protein kinases were identified as JNK1 and JNK2, respectively | phosphorylation of ATF2 by JNK1 (phosphopeptide mapping and mutational analysis) [2]: Phosphorylation of mutated ATF2 was not observed

B3: 55 kD JNK2 protein kinase (protein)
chain: MSDSKCDSQFYSVQVADSTFTVLKRYQQLKPIGSGAQGIVCAAFDTVLGINVAVKKLSRPFQNQTHAKRAYRELVLLKCVNHKNIISLLNVFTPQKTLEEFQDVYLVMELMDANLCQVIHMELDHERMSYLLYQMLCGIKHLHSAGIIHRDLKPSNIVVKSDCTLKILDFGLARTACTNFMMTPYVVTRYYRAPEVILGMGYKENVDIWSVGCIMGELVKGCVIFQGTDHIDQWNKVIEQLGTPSAEFMKKLQPTVRNYVENRPKYPGIKFEELFPDWIFPSESERDKIKTSQARDLLSKMLVIDPDKRISVDEALRHPYITVWYDPAEAEAPPPQIYDAQLEEREHAIEEWKELIYKEVMDWEERSKNGVVKDQPSDAAVSSNATPSQSSSINDISSMSTEQTLASDTDSSLDASTGPLEGCR
in-gel protein kinase assay with GST-ATF2 (residues 1-505) polymerized in the gel [1]: 46 kD and 55 kD protein kinases that phosphorylate ATF2 in extracts prepared from UV-irradiated cells. The 46 kD and 55 kD protein kinases were identified as JNK1 and JNK2, respectively

B4: GST-MKK4 (protein)
chain: T1 chain
phosphorylation of ATF2 in a coupled kinase assay (activation of JNK1) [3]: MKK4 incubated with wild-type JNK1, but not mutated JNK1, resulted in increased phosphorylation of ATF2 | phosphorylation of the substrate protein (in vitro kinase assay, [γ-32P]ATP) [4]: JNK1 and p38 were phosphorylated | phosphorylation of ATF2 in a coupled kinase assay (activation of JNK1) (GST-JNK1, P45983): ATF2 was phosphorylated in the presence of MKK4 and wild-type JNK1 | phosphorylation of the substrate protein (in vitro kinase assay, [γ-32P]ATP) (GST-JNK1, P45983): JNK1 and p38 were phosphorylated

B5: MKK6 (protein)
chain: MSQSKGKKRNPGLKIPKEAFEQPQTSSTPPRDLDSKACISIGNQNFEVKADDLEPIMELGRGAYGVVEKMRHVPSGQIMAVKRIRATVNSQEQKRLLMDLDISMRTVDCPFTVTFYGALFREGDVWICMELMDTSLDKFYKQVIDKGQTIPEDILGKIAVSIVKALEHLHSKLSVIHRDVKPSNVLINALGQVKMCDFGISGYLVDSVAKTIDAGCKPYMAPERINPELNQKGYSVKSDIWSLGITMIELAILRFPYDSWGTPFQQLKQVVEEPSPQLPADKFSAEFVDFTSQCLKKNSKERPTYPELMQHPFFTLHESKGTDVASFVKLILGD
phosphorylation of the substrate protein (in vitro kinase assay) [4]: shown to phosphorylate p38 MAP kinase on Thr^180 and Tyr^182, but not JNK1 or ERK2 | specific activity relative to MKK3 [4]: The specific activity of MKK6 was approximately 300-fold greater than that of MKK3 | phosphorylation of the substrate protein (in vitro kinase assay) (GST-ERK2 [GST: P08515]): shown to phosphorylate p38 MAP kinase on Thr^180 and Tyr^182, but not JNK1 or ERK2 | phosphorylation of the substrate protein (in vitro kinase assay) (GST-JNK1, P45983): shown to phosphorylate p38 MAP kinase on Thr^180 and Tyr^182, but not JNK1 or ERK2

B6: Flag epitope-tagged JNK1 (protein)
chain: SRSKRDNNFYSVEIGDSTFTVLKRYQNLKPIGSGAQGIVCAAYDAILERNVAIKKLSRPFQNQTHAKRAYRELVLMKCVNHKNIIGLLNVFTPQKSLEEFQDVYIVMELMDANLCQVIQMELDHERMSYLLYQMLCGIKHLHSAGIIHRDLKPSNIVVKSDCTLKILDFGLARTAGTSFMMTPYVVTRYYRAPEVILGMGYKENVDLWSVGCIMGEMVCHKILFPGRDYIDQWNKVIEQLGTPCPEFMKKLQPTVRTYVENRPKYAGYSFEKLFPDVLFPADSEHNKLKASQARDLLSKMLVIDASKRISVDEALQHPYINVWYDPSEAEAPPPKIPDKQLDEREHTIEEWKELIYKEVMDLEERTKNGVIRGQPSPLAQVQQ
phosphorylation of the GST-ATF2 fusion protein (immunocomplex kinase assay) [1]: JNK1 phosphorylates GST-ATF2 fusion proteins containing residues 1-505, 1-349, 1-109, 20-109, and 40-109, but not 60-109 | phosphorylation of the GST-ATF2 fusion protein (immunocomplex kinase assay) [5]: JNK1 phosphorylates GST-ATF2 fusion proteins containing residues 1-505, 1-349, 1-109, 20-109, and 40-109, but not 60-109 | phosphorylation of the GST-ATF2 fusion protein (immunocomplex kinase assay) [6]: JNK1 phosphorylates GST-ATF2 fusion proteins containing residues 1-505, 1-349, 1-109, 20-109, and 40-109, but not 60-109 | phosphorylation of the GST-ATF2 fusion protein (immunocomplex kinase assay) [7]: JNK1 phosphorylates GST-ATF2 fusion proteins containing residues 1-505, 1-349, 1-109, 20-109, and 40-109, but not 60-109 | phosphorylation of the GST-ATF2 fusion protein (immunocomplex kinase assay) [8]: JNK1 phosphorylates GST-ATF2 fusion proteins containing residues 1-505, 1-349, 1-109, 20-109, and 40-109, but not 60-109 | phosphorylation of GST-ATF2 (residues 1 to 109) (immunocomplex kinase assay, autoradiography) [9]: JNK1-transfected cells, but not mock-transfected cells, phosphorylated ATF2. JNK1 phosphorylation of ATF2 was greater in cells exposed to UV radiation | phosphorylation of the GST-ATF2 fusion protein (immunocomplex kinase assay) [9]: JNK1 phosphorylates GST-ATF2 fusion proteins containing residues 1-505, 1-349, 1-109, 20-109, and 40-109, but not 60-109
